# Data reported in patent publication US20220409550A1 (KOREA INSTITUTE OF SCIENCE AND TECHNOLOGY, published 2022).
# B1: monomeric form of soluble PD-1 (sPD-1) of the ecto-domain of murine PD-1 (receptor)
# chain: MHHHHHHLEVPNGPWRSLTFYPAWLTVSEGANATFTCSLSNWSEDLMLNWNRLSPSNQTEKQAAFCNGLSQPVQDARFQIIQLPNRHDFHMNILDTRRNDSGIYLCGAISLHPKAKIEESPGAELVVT
# Molecular target: murine PD-L1 on CHO-K1 cells (murine, UniProt Q9EP73 19-290)
# Assay: cell-based or functional assay
# Sequence of murine PD-L1 on CHO-K1 cells (Q9EP73 19-290): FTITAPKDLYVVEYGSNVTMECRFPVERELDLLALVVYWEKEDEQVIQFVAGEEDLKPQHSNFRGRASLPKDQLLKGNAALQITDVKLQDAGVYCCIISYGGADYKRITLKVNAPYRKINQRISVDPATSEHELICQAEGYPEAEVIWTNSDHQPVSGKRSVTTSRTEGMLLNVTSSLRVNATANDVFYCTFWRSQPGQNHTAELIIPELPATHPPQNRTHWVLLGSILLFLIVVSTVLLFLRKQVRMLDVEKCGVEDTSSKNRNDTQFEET
binder,measurement,value
B1,"half maximal effective concentration (EC50), NFAT-mediated luciferase expression, bioluminescent PD-1/PD-L1 blockade bioassay",457 nM
